Common to all, as to assay: cell-based or functional assay
Assay [1] deals with SARS-CoV-2 KP.2 spike (S) protein (SARS-CoV-2).
Assay [2] deals with SARS-CoV-2 KP.2.3 spike (S) protein (SARS-CoV-2).
The target in assay [3] is SARS-CoV-2 KP.3 spike (S) protein (SARS-CoV-2).
For assay [4], the target named is SARS-CoV-2 KP.3.1.1 spike (S) protein (SARS-CoV-2).
For assay [5], the target named is SARS-CoV-2 LB.1 spike (S) protein (SARS-CoV-2).
The target of assay [6] is SARS-CoV-2 B.1.617.1 spike (S) protein (SARS-CoV-2).
The target in assay [7] is SARS-CoV-2 HV.1 spike (S) protein (SARS-CoV-2).
Assay [8] concerns the target SARS-CoV-2 JF.1 spike (S) protein (SARS-CoV-2).
Assay [9] addresses SARS-CoV-2 HK.3 spike (S) protein (SARS-CoV-2).
The target of assay [10] is SARS-CoV-2 XBB.2.3.2 spike (S) protein (SARS-CoV-2).
Assay [11] addresses SARS-CoV-2 BA.1 spike (S) protein (SARS-CoV-2).
Assay [12] deals with SARS-CoV-2 B.1.525 spike (S) protein (SARS-CoV-2).
Assay [13] deals with SARS-CoV-2 B.1.429 spike (S) protein (SARS-CoV-2).
Assay [14] concerns the target SARS-CoV-2 BA.4/5 spike (S) protein (SARS-CoV-2).
The target of assay [15] is SARS-CoV-2 B.1.351 spike (S) protein (SARS-CoV-2).
The target of assay [16] is SARS-CoV-2 BA.2.86 spike (S) protein (SARS-CoV-2).
Assay [17] concerns the target SARS-CoV-2 B.1.1.7 spike (S) protein (SARS-CoV-2).
Assay [18] addresses SARS-CoV-2 JN.1 spike (S) protein (SARS-CoV-2).
For assay [19], the target named is SARS-CoV-2 XBB.1.16.6 spike (S) protein (SARS-CoV-2).
For assay [20], the target named is SARS-CoV-2 P.2 spike (S) protein (SARS-CoV-2).
The target in assay [21] is SARS-CoV-2 EG.5.1 spike (S) protein (SARS-CoV-2).
The target in assay [22] is SARS-CoV-2 JD.1.1 spike (S) protein (SARS-CoV-2).
For assay [23], the target named is SARS-CoV-2 spike (S) protein, B.1.351 (SARS-CoV-2).
For assay [24], the target named is SARS-CoV-2 spike (S) protein, B.1.617.2 (SARS-CoV-2).
Assay [25] deals with SARS-CoV-2 B.1.526 spike (S) protein (SARS-CoV-2).
In assay [26] the target is SARS-CoV-2 CH.1.1 spike (S) protein (SARS-CoV-2).
The target of assay [27] is SARS-CoV-2 FL.1.5.1 spike (S) protein (SARS-CoV-2).
The target of assay [28] is SARS-CoV-2 P.1 spike (S) protein (SARS-CoV-2).
In assay [29] the target is SARS-CoV-2 B.1.617.2 spike (S) protein (SARS-CoV-2).
The target in assay [30] is SARS-CoV-2 XBB.1.5 spike (S) protein (SARS-CoV-2).
The target in assay [31] is SARS-CoV-2 XBB spike (S) protein (SARS-CoV-2).
The target of assay [32] is SARS-CoV-2 B.1.427 spike (S) protein (SARS-CoV-2).
The target in assay [33] is SARS-CoV-2 B.1.621 spike (S) protein (SARS-CoV-2).
The target in assay [34] is SARS-CoV-2 Omicron sublineage CH.1.1 spike (S) protein (SARS-CoV-2).
For assay [35], the target named is SARS-CoV-2 spike (S) protein, Omicron sublineage BA.4/5 (SARS-CoV-2).
For assay [36], the target named is SARS-CoV-2 spike (S) protein, Omicron sublineage XBB.1.5 (SARS-CoV-2).
The target of assay [37] is SARS-CoV-2 spike (S) protein, Omicron sublineage BA.2.75.2 (SARS-CoV-2).
Assay [38] has as its target SARS-CoV-2 spike (S) protein, Omicron sublineage XBB (SARS-CoV-2).
In assay [39] the target is SARS-CoV-2 spike (S) protein, Omicron sublineage BQ.1.1 (SARS-CoV-2).
Assay [40] has as its target SARS-CoV-2 Omicron sublineage BF.7 spike (S) protein (SARS-CoV-2).

This note sets out measurements from patent US20250326823A1.

Regarding ADG20 (antibody), the pseudovirus neutralization IC50 in [1], in [2], in assay [3], in assay [4] and in [5] was over 67 nM throughout. For the same substance, the pseudovirus neutralization IC80 in assay [1], in [2], in [3], in assay [4] and in assay [5] was over 67 nM in each case.

On to AZD3152 (antibody), for which the pseudovirus neutralization IC50 is 0.041 µg/mL in assay [6]; over 10 µg/mL in [7]; over 10 µg/mL in [8]; over 10 µg/mL in assay [9]; 0.025 µg/mL in assay [10]; 0.012 µg/mL in assay [11]. Moreover, the pseudovirus neutralization IC50 in assay [12] came to 0.1 µg/mL; in [13] it was 0.082 µg/mL; in [14], 0.03 µg/mL; in assay [15], 0.024 µg/mL; in assay [16], 0.053 µg/mL; in assay [17] it was 0.093 µg/mL. Further, the pseudovirus neutralization IC50 in assay [18] is 0.766 µg/mL; in [19], over 10 µg/mL; in assay [20] it was 0.02 µg/mL; in [21], over 10 µg/mL; in assay [22] it was over 10 µg/mL; in [25], 0.049 µg/mL. In addition, the pseudovirus neutralization IC50 is 0.045 µg/mL in assay [26]; over 10 µg/mL in assay [27]; 0.047 µg/mL in [28]; 0.09 µg/mL in [29]; 0.016 µg/mL in assay [30]; 0.011 µg/mL in [31]. Further, the values for the pseudovirus neutralization IC50 in assay [32] and in assay [33] were 0.09 µg/mL and 0.04 µg/mL, respectively. In addition, the pseudotyped neutralization potency IC50 was 0.0806 nM in assay [10]; 1.8 nM in assay [16]; over 66.7 nM in [19]; over 66.7 nM in assay [21]; over 66.7 nM in assay [27]. The pseudotyped neutralization potency IC80 in [10] is 0.488 nM; in [16] it was 5.4 nM; in assay [19] it was over 66.7 nM; in assay [21] it was over 66.7 nM; in assay [27], over 66.7 nM. Also, the IC50, pseudotyped neutralization potency in assay [23] turned out to be 0.023 nM; in assay [24], 0.281 nM. Also, the IC80, pseudotyped neutralization potency came out at 0.041 nM in assay [23] and 0.518 nM in assay [24].

For the substance LY1404 (antibody), the pseudotyped neutralization potency IC50 in assay [34] was over 67 nM; in [35], 0.01 nM; in assay [36], over 67 nM; in assay [37], 0.04 nM; in [38], over 67 nM; in assay [39], over 67 nM. The pseudotyped neutralization potency IC50 in assay [40] was 0.02 nM. For the same substance, the pseudotyped neutralization potency IC80 is over 67 nM in assay [34]; 0.02 nM in assay [35]; over 67 nM in [36]; 0.14 nM in assay [37]; over 67 nM in [38]; over 67 nM in assay [39]. Further, the pseudotyped neutralization potency IC80 in [40] was 0.18 nM.
